Key:
[1] = biological target: T1, recombinant γ-module (residues γ148-411) (Homo sapiens, UniProt P02679); experiment: ELISA and kinetic analysis of incorporation into immobilized γ-module; format: biochemical
T1 construct: comprising residues 148-411 of the human fibrinogen γ chain; made in house; host or cells: E. coli, pET20b expression vector
T1 sequence (P02679 174-437 isoform P02679-2): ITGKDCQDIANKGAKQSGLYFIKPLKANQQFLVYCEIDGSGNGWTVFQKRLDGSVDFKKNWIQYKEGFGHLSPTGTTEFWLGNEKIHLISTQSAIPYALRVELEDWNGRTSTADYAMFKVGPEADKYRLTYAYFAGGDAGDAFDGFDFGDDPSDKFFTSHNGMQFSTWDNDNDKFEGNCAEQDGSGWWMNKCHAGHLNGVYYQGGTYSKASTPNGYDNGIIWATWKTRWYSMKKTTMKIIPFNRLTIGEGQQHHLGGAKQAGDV
Description: (§1) The interaction between thymosin β4 and fibrin(ogen) and its fragments in the presence or absence of FXIIIa was studies by ELISA using plastic microliter plates. Wells of microliter plates were coated overnight at […] with fibrinogen and fibrin at 10 μg/mL or with the recombinant fragments of 20 μg/ml, all in 0.1 M NaHCO3 buffer, pH 8.3. Fibrin was made by addition to the wells of a mixture containing 10 μg/mL fibrinogen 1 NIH u/ml thrombin and 400 u/ml aprotinin, followed by overnight incubation at +4° C. The wells were then blocked by incubation with Super Blocker (Pierce) at 37° C. for 1 h. Following washing with TBS containing 0.05% Tween-20 (TBS-Tween), the indicated concentrations of thymosin β4, FXIII, FXIIIa(Thr) and FXIIIa(Ca) were added to the wells and incubated for 2-2.5 h at 37° C. Bound (incorporated) thymosin β4 was detected by the reaction with rabbit anti-thymosin β4 serum and peroxidase-conjugated anti-rabbit IgG. A TMB Microwell Peroxidase Substrase was added to the wells, and the incorporated thymosin β4 was measured spectrophotometrically at 450 nm.
(§2) To analyze kinetics of the incorporation of thymosin β4 into different fibrin(ogen) fragments, they were immobilized onto the wells of microliter plates (as described above, except that the concentration of all fragments was 20 μg/mL) and incubated with several concentrations of thymosin β4 in the presence of 10 μg/L thrombin-activated factor XIIIa. The incubation mixtures were inhibited every 15 min during 1 hour of incubation by the addition of iodacetamide to final concentration 10 mM. Incorporated thymosin β4 at each time point was detected with rabbit anti-thymosin β4 serum as described above. The initial rates of the reaction of incorporation (V) at different concentrations of thymosin β4 were determined from the slopes of the reaction time course plots and expressed as tangent α=A450/t (min), where A450 represents absorbance at 450 nm in optical units (o.u) which is proportional to the amount of incorporated thymosin β4. […]

[2] = biological target: T2, αC-domain (residues Aα221-610) (Homo sapiens, UniProt P02671); experiment: ELISA and kinetic analysis of incorporation into immobilized αC-domain; format: biochemical
T2 construct: human fibrinogen αC-domain (residues Aα221-610); made in house; host or cells: E. coli, pET20b expression vector
T2 sequence (P02671 240-629): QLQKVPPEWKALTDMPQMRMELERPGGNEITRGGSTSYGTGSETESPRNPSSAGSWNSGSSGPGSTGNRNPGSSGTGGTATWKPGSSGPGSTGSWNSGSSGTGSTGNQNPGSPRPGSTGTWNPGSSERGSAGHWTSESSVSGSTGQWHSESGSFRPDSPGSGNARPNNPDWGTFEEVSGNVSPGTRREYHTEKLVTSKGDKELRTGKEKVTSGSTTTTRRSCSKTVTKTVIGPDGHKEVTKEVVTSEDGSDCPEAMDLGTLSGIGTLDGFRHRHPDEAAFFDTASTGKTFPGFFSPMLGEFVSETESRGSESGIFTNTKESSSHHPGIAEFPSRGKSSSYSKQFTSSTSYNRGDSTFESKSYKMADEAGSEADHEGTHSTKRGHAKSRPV
Description: as §1, §2

[3] = non-activated factor XIII or without it

## thymosin β4
[1]; [3]
  non-covalent interaction with γ-module (ELISA): no significant non-covalent interaction
[1]; presence of factor XIIIa
  incorporation into immobilized γ-module (ELISA): incorporated effectively
[1]; thrombin-activated factor XIIIa, Lineweaver-Burk plot, read-out: apparent Michaelis constant (Km) for incorporation into the γ-module
  Km: 183 ± 29 µM
[2]; [3]
  non-covalent interaction with αC-domain (ELISA): no significant non-covalent interaction
[2]; presence of factor XIIIa
  incorporation into immobilized αC-domain (ELISA): incorporated effectively
[2]; thrombin-activated factor XIIIa, Lineweaver-Burk plot, read-out: apparent Michaelis constant (Km) for incorporation into the αC-domain
  Km: 17.6 ± 2.5 µM

Source: patent US20100204147A1, “Methods For Delivering Thymosin Beta 4, Analogues, Isoforms and Other Derivatives” (REGENERX BIOPHARMACEUTICALS, INC., priority 2003, published 2010)
